Laboratory results reported in patent publication US20180073039A1 (SINAI HEALTH SYSTEM, published 2018).
Blank lines part the entries; values can stand above or below the molecule they belong to.

Key:
[1] = system: ubiquitylated HA-PALB2 (1-103) (in vitro ubiquitylated by CRL3-KEAP1)
[2] = system: T1, HA-PALB2 (1-103)
T1 sequence: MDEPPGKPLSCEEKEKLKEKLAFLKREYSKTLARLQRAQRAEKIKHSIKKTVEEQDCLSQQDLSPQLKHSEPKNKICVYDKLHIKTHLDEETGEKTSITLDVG

[3] = molecular target: T2, BRCA2 (Homo sapiens breast cancer 2) (human, UniProt P51587 1-3418); assay: PALB2 immunoprecipitation from 293T extracts synchronized in S or G1, immunoblot
T2 construct: Endogenous protein in 293T extracts, detected by immunoblot

Molecule: glutathione S-transferase (GST)-USP11 (Sus scrofa (pig) USP11)
deubiquitylation reaction, immunoblot [1]: recombinant USP11 can directly de-ubiquitylate PALB2 (1-103)

Molecule: recombinant CRL3-KEAP1 (neddylated CUL3/RBX1 with GST-mKEAP1)
in vitro ubiquylation of HA-PALB2 (1-103), immunoblot and mass spectrometry [2]: ubiquitylation of the N-terminus of PALB2 (residues 1-103; fused to a haemagglutinin (HA) epitope tag) could be readily reconstituted by recombinant CRL3-KEAP1

binding result [3]: binds
B1: PALB2 (partner and localizer of BRCA2) (other)
chain: MDEPPGKPLSCEEKEKLKEKLAFLKREYSKTLARLQRAQRAEKIKHSIKKTVEEQDCLSQQDLSPQLKHSEPKNKICVYDKLHIKTHLDEETGEKTSITLDVGPESFNPGDGPGGLPIQRTDDTQEHFPHRVSDPSGEQKQKLPSRRKKQQKRTFISQERDCVFGTDSLRLSGKRLKEQEEISSKNPARSPVTEIRTHLLSLKSELPDSPEPVTEINEDSVLIPPTAQPEKGVDTFLRRPNFTRATTVPLQTLSDSGSSQHLEHIPPKGSSELTTHDLKNIRFTSPVSLEAQGKKMTVSTDNLLVNKAISKSGQLPTSSNLEANISCSLNELTYNNLPANENQNLKEQNQTEKSLKSPSDTLDGRNENLQESEILSQPKSLSLEATSPLSAEKHSCTVPEGLLFPAEYYVRTTRSMSNCQRKVAVEAVIQSHLDVKKKGFKNKNKDASKNLNLSNEETDQSEIRMSGTCTGQPSSRTSQKLLSLTKVSSPAGPTEDNDLSRKAVAQAPGRRYTGKRKSACTPASDHCEPLLPTSSLSIVNRSKEEVTSHKYQHEKLFIQVKGKKSRHQKEDSLSWSNSAYLSLDDDAFTAPFHRDGMLSLKQLLSFLSITDFQLPDEDFGPLKLEKVKSCSEKPVEPFESKMFGERHLKEGSCIFPEELSPKRMDTEMEDLEEDLIVLPGKSHPKRPNSQSQHTKTGLSSSILLYTPLNTVAPDDNDRPTTDMCSPAFPILGTTPAFGPQGSYEKASTEVAGRTCCTPQLAHLKDSVCLASDTKQFDSSGSPAKPHTTLQVSGRQGQPTCDCDSVPPGTPPPIESFTFKENQLCRNTCQELHKHSVEQTETAELPASDSINPGNLQLVSELKNPSGSCSVDVSAMFWERAGCKEPCIITACEDVVSLWKALDAWQWEKLYTWHFAEVPVLQIVPVPDVYNLVCVALGNLEIREIRALFCSSDDESEKQVLLKSGNIKAVLGLTKRRLVSSSGTLSDQQVEVMTFAEDGGGKENQFLMPPEETILTFAEVQGMQEALLGTTIMNNIVIWNLKTGQLLKKMHIDDSYQASVCHKAYSEMGLLFIVLSHPCAKESESLRSPVFQLIVINPKTTLSVGVMLYCLPPGQAGRFLEGDVKDHCAAAILTSGTIAIWDLLLGQCTALLPPVSDQHWSFVKWSGTDSHLLAGQKDGNIFVYHYS
notes: Endogenous protein in extracts of human 293T cells, immunoprecipitated with rabbit anti-PALB2 or detected by immunoblot; NCBI NP_078951.2
